Values of other authors, collected in article PMC4958339.

Tests used:
Lgl = Lgl (UniProt P08111)
Pins/LGN = Pins/LGN (UniProt Q8VDU0)
Sequence of UniProt Q8VDU0 (Q8VDU0 392-414): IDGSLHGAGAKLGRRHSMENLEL

Sequence of UniProt P08111 (P08111 648-670): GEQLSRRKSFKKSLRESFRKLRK

Substance: Dlg GUK (from UniProt Q12959)
- Kd (Lgl): 10.2 µM
- Kd (Pins/LGN): 0.33 µM
